B1: Coronatine-insensitive protein 1 (Arabidopsis thaliana (Mouse-ear cress)), O04197 (parent)
chain: MEDPDIKRCKLSCVATVDDVIEQVMTYITDPKDRDSASLVCRRWFKIDSETREHVTMALCYTATPDRLSRRFPNLRSLKLKGKPRAAMFNLIPENWGGYVTPWVTEISNNLRQLKSVHFRRMIVSDLDLDRLAKARADDLETLKLDKCSGFTTDGLLSIVTHCRKIKTLLMEESSFSEKDGKWLHELAQHNTSLEVLNFYMTEFAKISPKDLETIARNCRSLVSVKVGDFEILELVGFFKAAANLEEFCGGSLNEDIGMPEKYMNLVFPRKLCRLGLSYMGPNEMPILFPFAAQIRKLDLLYALLETEDHCTLIQKCPNLEVLETRNVIGDRGLEVLAQYCKQLKRLRIERGADEQGMEDEEGLVSQRGLIALAQGCQELEYMAVYVSDITNESLESIGTYLKNLCDFRLVLLDREERITDLPLDNGVRSLLIGCKKLRRFAFYLRQGGLTDLGLSYIGQYSPNVRWMLLGYVGESDEGLMEFSRGCPNLQKLEMRGCCFSERAIAAAVTKLPSLRYLWVQGYRASMTGQDLMQMARPYWNIELIPSRRVPEVNQQGEIREMEHPAHILAYYSLAGQRTDCPTTVRVLKEPI
B2: Coronatine-insensitive protein 1 (Arabidopsis thaliana (Mouse-ear cress)), O04197 (parent)
chain: B1 chain
partner: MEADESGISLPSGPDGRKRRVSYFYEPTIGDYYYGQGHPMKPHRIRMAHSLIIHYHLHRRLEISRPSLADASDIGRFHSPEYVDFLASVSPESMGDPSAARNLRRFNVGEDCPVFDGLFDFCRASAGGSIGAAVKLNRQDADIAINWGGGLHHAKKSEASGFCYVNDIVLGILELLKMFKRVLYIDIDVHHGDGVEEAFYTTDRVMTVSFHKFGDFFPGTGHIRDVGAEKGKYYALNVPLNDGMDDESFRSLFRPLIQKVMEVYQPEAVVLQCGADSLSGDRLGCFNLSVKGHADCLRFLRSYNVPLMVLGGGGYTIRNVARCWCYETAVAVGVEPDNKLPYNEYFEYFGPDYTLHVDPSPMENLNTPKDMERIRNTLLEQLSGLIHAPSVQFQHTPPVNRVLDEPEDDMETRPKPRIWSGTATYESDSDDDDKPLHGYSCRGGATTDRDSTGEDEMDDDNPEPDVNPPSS

Variants of: B1
Settings: with skp1a_arath SKP1A

Variant | effect of a mutation on the interaction
W44A | decreasing interaction

Variants of: B1
Settings: with skp1b_arath SKP1B

Variant | effect of a mutation on the interaction
W44A | decreasing interaction

Variants of: B1
Settings: with rbs3b_arath RBCS-3B

Variant | effect of a mutation on the interaction
W44A | decreasing interaction
L245F | decreasing interaction

Variants of: B2
Settings: with hda6_arath HDA6, Q9FML2

Variant | effect of a mutation on the interaction
W44A | decreasing interaction
L245F | decreasing interaction
